# Test: soluble on expression in E. coli; label from the status in PepcDB or PDB records
row,Sequence,soluble on expression in E. coli
1,GMRSNRVTQHPPLQLSLPVHLPDDETFTSYYPAAGNDELIGALKSAASGDGVQAIYLWGPVKSGRTHLIHAACARANELERRSFYIPLGIHASISTALLEGLEQFDLICIDDVDAVAGHPLWEEAIFDLYNRVAEQKRGSLIVSASASPMEAGFVLPDLVSRMHWGLTYQLQPMMDDEKLAALQRRAAMRGLQLPEDVGRFLLNRMARDLRTLFDVLDRLDKASMVHQRKLTIPFVKEMLRL,soluble
2,GMSNALATLASPADDIAFYEERLRAAMLTGDLKGLETLLADDLAFVDHTGCVKTKQTHLEPYRAGLLKLSRLDLSDAVVRAAGEDGRVVVVRAVTAGVYDGEAFTETLRFTRIWRRTQGPAGWKLVAGHCSVIL,soluble
3,GMSSKEEILSILEAFASTERMGSFFLDNATADFLFIRPSGNPLDAKGFENMWSSGDLVLESAEITKVHKFELLGSNAAICVFTLGSKFTYKGTQNDDLPTVTSIFKKIDEKWKVAWMQRSSGQSDMTLWNE,soluble
4,GMSTQENVQIVKDFFAAMGRGDKKGLLAVSAEDIEWIIPGEWPLAGTHRGHAALAALLQKASEMVEISYPEPPEFVAQGERVLVVGFATGRVKSTNRTFEDDWVFAITVRKSKVTSIREYIDTLALARATNFNAT,soluble
5,GMSTSPADTARYNRFVADLFGMMAYGELSAFERFSADARYSPTLHDRAVLGRIAVVEFRHYELVSARLEAMGIDAEDAMLPFQAAVDYFHSRTRPADWYESLMKAYVIDTVSADFYRAISRYVDAGTRDVIEQIQASDETTEVLRERLRSALADDPRLASRLALWGRRLLGEALTQAQRVSYEHAFLGSLIGGEDSAAAKELVSGLIAGLAEKHSKRMTQLGLTG,soluble
6,GMTGFVINTRRAPFDDWRLREALLLAFNFEFINDTVTGGVMPRITSYFSGTDLAYRPGTASGREAELLAPFAADLPPGTLEGYALPQGDGTARNRTNLRRAAQFLEQAGFRIEQGQLLGPDGAPLALRFLLRQGDSDMQTVLEIYTRALERLGIAAQIEKVDNAQYTARVAELDFDLTPFRRDLSLSPGNEQRLYWGSHSAGQPGTRNLMGAASPAIDAMIDRMLAATTEDELTAATRALDRVLTAGRYVIPIWRFD,not soluble
7,GMTQHITRMRREIDEIPEAVQRLLDHGAQDVARVAAVLRLRDPSFVATVARGSSDHVCTYLSYAAELLLGLPVASLGPSVASVYDARLRLDRALCLAVSQSGKSPDIVAMTRNAGRDGALCVALTNDAASPLAGVSAHTIDIHAGPELSVAATKTFVTSAVAGLMLLADWAEDDGLRAALGNLPETLAAASRIDWPEMRVAIGARPSLFTLGRGTSLAVSNEAALKFKETCQLHAESYSSAEVLHGPVSIVEEGFPVLGFAAGDAAEAPLAEIADQIAAKGATVFATTGRVTRARVLEHVRSGHALTDPLSLIVSFYSMVEAFASERGIDPDAPRHLNKVTETV,soluble
8,GMTRPAHPISRYPVPELAALPDDIRQRILEVQDKAGFVPNVFLTLAHRPDEFRAFFAYHDALMLKDGGLTKGEREMIVVATSAANQCLYCVVAHGAILRIYEKKPLVADQVAVNYLKADIPPRQRAMLDFALKVCKASHEVNEADFEALREHGFTDEDAWDIAAITAFFGLSNRMANTIGMRPNDEFFLMGRVPKSK,soluble
9,GMTRSEAQGRLTGLAPVSVIDIGSNSVRLVVYEGLSRAPAVLFNEKVLCGLGKGLALTGRMHEEGVTRALMALRRFHVLSEQAQAQKLYVLATAAAREAENGPDFIREAEAILGCEIEVLSGEKEALYSAYGVISGFYQPDGIAGDLGGGSLELIDIKDKSCGEGITLPLGGLRLSEQSDGSLEKAATIARKHVKSFAKLLAAGEGRTFYAVGGTWRNIAKLHMEISGYPLHMMQGYELPLEEMLNFLEEVIVSRDSKDPAWQAVSKNRRSLLPFGAIAMREVLRAMKPAKIAFSAQGVREGYLYSLLTEAERESDPLLVAADELAILRARSPEHARELADWSGRTFPVFGIDETEEESRYRQAACLLADISWRAHPDYRGLQALNIIAHSSFVAITHPGRAYIALANYYRFEGLNDNGTTEPLAAMAGERLQELGKLLGGLLRVVYLFSASMPGVVDHLKFRKSDNPDIDLEFVVPHDYCDFAGERLDGRLQQLAKLTGKRLAFVFE,soluble
10,GMTYKDYTGLDRTELLSKVRHMMSDKRFNHVLGVERAAIELAERYGYDKEKAGLAALLHDYAKELSDDEFLRLIDKYQPDPDLKKWGNNIWHGLVGIYKIQEDLAIKDQDILAAIAKHTVGSAQMSTLDKIVYVADYIEHNRDFPGVEEARELAKVDLNKAVAYETARTVAFLASKAQPIYPKTIETYNAYIPYLD,soluble
11,GNIEAALFGLIALYAQTKVIDSIIYGGDAGSMATIVTGNPDGIAAKVIYELDRTATVLPAKGAYSRKDTSVLLCTVRKSQFVKLKRIVYEEDPDAFVMVTETSEVLGLGFRAFKDSL,not soluble
12,GPALVKQSHPKNPNDKHRSKKCKDPKPRVKKLKYHQYIPPDQKGEKNEPQMDSNYARLLQQQQLFLQLQILSQQKQHYNYQTILPAPFKPLNDKNSNSGNSALNNATPNTPRQNTSTPVRKPGPLPSSLDDLKVSELKTELKLRGLPVSGTKPDLIERLKPYQEVNSSGLAAGGIVAVSSSAIVTSNPEVTVALPVTTLHNTVTSSVSTLKAELPPTGTSNATRVENVHSPLPISPSPSEQSSLSTDDTNMADTFTEIMTMMSPSQFLSSSPLRMTNNEDSLSPTSSTLSNLELDAAEKDRKLQEKEKQIEELKRKLEQEQKLVEVLKMQLEVEKRGQQQRPLEAQPSAPGHSVKSDQKHGSLGSSIKDEASLPDCSSSRQPIPVASHAVGQPVSTGGQTLVAKKAVVIKQEVPVGQAEQQSVVSQFYVSSQGQPPPAVVAQPQALLTTQTAQLLLPVSIQGSSVTSVQLPVGSLKLQTSPQAGMQTQPQIATAAQIPTAALASGLAPTVPQTQDTFPQHVLSQPQQVRKVFTNSASSNTVLPYQRHPAPAVQQPFINKASNSVLQSRNAPLPSLQNGPNTPNKPSSPPPPQQFVVQHSLFGSPVAKTKDPPRYEEAIKQTRSTQAPLPEISNAHSQQMDDLFDILIKSGEISLPIKEEPSPISKMRPVTASITTMPVNTVVSRPPPQVQMAPPVSLEPMGSLSASLENQLEAFLDGTLPSANEIPPLQSSSEDREPFSLIEDLQNDLLSHSGMLDHSHSPMETSETQFAAGTPCLSLDLSDSNLDNMEWLDITMPNSSSGLTPLSTTAPSMFSADFLDPQDLPLPWD,soluble
13,GPGSMAETRKEEWSEPEVPGGRSEVVAGIKRRREKLELYQSASHKMKALMMNSAGIRSGLGANNELPVNPIWMKFPTRCVKPIHSVEEMREKLHYFSHSDDVMVVRYHQENCTACNALDKTFEFLCHQSADRYPNLKFYEVSKDATPQLTRNLVRYPQVKGFSGGHWTDLEFKPPAEFREELYSGVEREVTRRKREGQPVTALEAEEMYYSSAGPAMAQVLEESVVKFYCKAQARLHNYWKQVSVRRAWFFRKFVEPKVDDQVRDEWRLKSVFGEKLSYGPEPQMEEF,not soluble
14,GPGSMAHEHGNEFAGPGGGNGGNGGNVMLQCVKQHTDLSHIEDLGSQISAGAGCCGFSREAHGKRGQDLWLQLPLGTQVVDMDTNEVQYDMDEEGMQIVLLEGGQGGKGNAAFANKWHHSPIESTKGLPGNTMLAQIELKTIADCGLIGYPNAGKSSLLSAISASKPTIAPYAFTTLRPYVGVLHDLYGNVCRVADIPGLIEGAYENRGLGHQFLRHVERTKCLALVVDMCNTYVPDTGLRNSSEVLQPWDVVELLLQELEYYLPGMSQRVIMTFANKMDIEKDSTGTATQVKLSELKRRVSMPVFPISAALGIHLGPQHEQTGLAPALQFMCGEVFARQSQEREMRQFRFSHERAQLERAFRAKHNGVFLPQVHALGAHGAEASQDLDDEAADRGGSLVDQQLDFLGNSGLGVKFDAYENSAARGQLHRYRDLTMKGKYWNLTRQDGEVMKGEKWS,not soluble
15,GPGSMAIPPLRASDLSSPSPSIAPQRERTRSVGTRLRTSITRDDAERVLPASSSQVETLARDATTTCEQQLMQEEELCGPSYREVEGRRPSRALSPSGAGDTSGVEDGGRARGREYVEDSDDEDVYNSHVARRIRAFLDSIKAEDFTRNPSPVDVTGMAANGEGIDEEALRQQWLERATVDEARSIAAEAQRELLIVLHDAITLETDLAEMSEDAAVLERAVNHREETVEMLKMQLSIADEYNEELHGAKKEALRKLSDAKTEIALLSQRNATLSKQLHEKEKALQLSLARSASASARTSPPAAERRDEGTITTAELQSALIAATASTGLPNNGSLSTPSSPAQHGECELKGMLRKLQLVCDTLQSTVTAKADLDQQLRQWTMGVGESRADAAACGSASSDAGISQPHGERCAPTDAEQRLLRRRCEDVARCIDSLENDIRMLRAKVRAQQACTDAVEGGSAGRRRSAAEAEAATRPQPVETPGPASASATLPEGPGGSGGCAEPADSNLAFLQRQLDRAQADARRLESELRAEREKSQRQSAAEKKLLENVAYLTRKLRAREALDREARLQRRGEKGGTHGDGGDTADGRRTLLYPHRFSHGDSAGVRRGASTAAGDVCGEGAPTSALRRVNREADAVGMGAATAAARKGRANSQELRQRRESVFAALRDAQRASDERRSSHVVSDTRRSSDVQTSFSPILPTSSSRDAALKASGNAVKSGTRATTPTLTPSRG,not soluble
16,GPGSMAKRDKRRTSLVQQNFDSLKRFYAISPFAAAERATLPPVYSGVYSRRAAMNSYHVVGSSRDQIVLEAMRTFTPSVCTKEVMDLYLEVAALVSLYFDTKEQLLALPDV,not soluble
17,GPGSMASKKQADGSKDIGDAAWREKLTTQEYRVLRQKATDPPFGAYNTHFETGTYHCAGCGTLLYKSSMKFPCECGWPAFFDCVPLAVREEPDSDGVRTEILCNACGGHLGHVFRGEGFNNPPPNERHCVNGTAIRFQSEK,soluble
18,GPGSMAVPDDNAEEVELLLSISPEVVCRDPTHSSTLVFLLPFRFVLHVTLPPRGYPDVSRPSLFVAAGPNAHLVNQFSSQLNKALREEVPLGGPMLLHIFTLAQDIATELQRTREAEAQEAKARREAMESEAQLALAEREASSVEVWASDAITDRKSKFVAHMARVDSEAAVREVVMHLRSQKHIAEAAHPTIYAYRFTDSSGVVHHDSDDDGETGAASRIMFLLEQMKVDGYVVVVTRWFGGVLLGPDRFKHIMEVARSILLTIPQREKERGVRDWQDRQ,soluble
19,GPGSMDAIHILKENALRLVSAGQPISALHLVEVLCELQPDSDENRSLKIRCLYELREFDSVLKLAKQVTFACDQNSEVFLLAVKAAFELGDLKTCVQYAMTLINADSSKVVAMCFVAKAAELSGDPAKAVRFYKMALEADPFCGEAFSALTERHLLDRWEMLKLIDSLCIPAEVEVYRSTLKARIGSDYLTPGISGVPRTLVLLAGAKKEYESNNLRQALSLTTEILEVEPYHRQTLCLHLCILVDSKATPLLFEKAHFLSKNKCYTELAVYAIGCFYYSLSNYERAGRYFSRASELDCYFAEAWVAYGHCYAKLEEGEQALNVYRRTMNFFPGLNACCTYVGMQYSRVNQRSVARCFFEESLRKNSIDPLVLNELGVLALAEDNPKQALELFQKAYDSLPNRENPSEHSDCILFNLATMYRKLGRYEAAIDYYNQYVRSRPNASHGHCALGFTYHLSGNIKAAISCYHTAESIKPDSFCRDLLRRALELDFGACGRLSWDSERPHLSFSPGEVSFSTVSRRFRSESTAADSVAASPPPRVGRSLDFQHQ,not soluble
20,GPGSMEGISEEQRQREEAEIRERDRKRQQEKEDYERRLAEAKAEEERKRREEEQLRLEEEKRKKRQEEEWKRLGSDAIQDLPPVPPPVAEEGALDMWYLDDETSQPPLSTASLKPGRKVGAPVITMKALRELGVVLFRVSMSDFSVVRQIIKEREYKHTDEVKISQTAKDDSFLERWYQEHYTEDEQFRVVMDGSFFLDIRSKQDEWIRVHVKAGDLVVLPAGIYHRATLDEDDYVALYRGFQDAPRFVPVKRSDSRADSNRVRLAYLMSLKKGDVATQNGFL,soluble

# Source: the DeepSol protein solubility set
